Patent US20230355711A1

Target: recombinant SARS-CoV-2 spike protein (S1S2ECD-His; Sino Biological) (SARS-CoV-2) (UniProt P0DTC2)

Substance “heat-inactivated recombinant human rod domain of vimentin (ΔrhRod) (from UniProt P08670 96-407)” has a Kd of 1100 nM.
